Consider 37 molecules from patent US20230151068A1.

Sequences and labels used below:
B1: A08W variant of SEQ ID NO: 1 (designed binder)
chain: GSPDEYIERWKECCKKGDIQCCLRYFEESGDPNVMLICLFCP
B2: K14D variant of SEQ ID NO: 1 (designed binder)
chain: GSPDEYIERAKECCKDGDIQCCLRYFEESGDPNVMLICLFCP
B3: K13E variant of SEQ ID NO: 1 (designed binder)
chain: GSPDEYIERAKECCEKGDIQCCLRYFEESGDPNVMLICLFCP
B4: R07Y variant of SEQ ID NO: 1 (designed binder)
chain: GSPDEYIEYAKECCKKGDIQCCLRYFEESGDPNVMLICLFCP
B5: D02P variant of SEQ ID NO: 1 (designed binder)
chain: GSPPEYIERAKECCKKGDIQCCLRYFEESGDPNVMLICLFCP
B6: K14G variant of SEQ ID NO: 1 (designed binder)
chain: GSPDEYIERAKECCKGGDIQCCLRYFEESGDPNVMLICLFCP
B7: K09W variant of SEQ ID NO: 1 (designed binder)
chain: GSPDEYIERAWECCKKGDIQCCLRYFEESGDPNVMLICLFCP
B8: G15D variant of SEQ ID NO: 1 (designed binder)
chain: GSPDEYIERAKECCKKDDIQCCLRYFEESGDPNVMLICLFCP
B9: E06Y variant of SEQ ID NO: 1 (designed binder)
chain: GSPDEYIYRAKECCKKGDIQCCLRYFEESGDPNVMLICLFCP
B10: I05Y variant of SEQ ID NO: 1 (designed binder)
chain: GSPDEYYERAKECCKKGDIQCCLRYFEESGDPNVMLICLFCP
B11: Q18E variant of SEQ ID NO: 1 (designed binder)
chain: GSPDEYIERAKECCKKGDIECCLRYFEESGDPNVMLICLFCP
B12: K13D variant of SEQ ID NO: 1 (designed binder)
chain: GSPDEYIERAKECCDKGDIQCCLRYFEESGDPNVMLICLFCP
B13: E10Y variant of SEQ ID NO: 1 (designed binder)
chain: GSPDEYIERAKYCCKKGDIQCCLRYFEESGDPNVMLICLFCP
B14: G15E variant of SEQ ID NO: 1 (designed binder)
chain: GSPDEYIERAKECCKKEDIQCCLRYFEESGDPNVMLICLFCP
B15: I05P variant of SEQ ID NO: 1 (designed binder)
chain: GSPDEYPERAKECCKKGDIQCCLRYFEESGDPNVMLICLFCP
B16: K09Y variant of SEQ ID NO: 1 (designed binder)
chain: GSPDEYIERAYECCKKGDIQCCLRYFEESGDPNVMLICLFCP
B17: E10P variant of SEQ ID NO: 1 (designed binder)
chain: GSPDEYIERAKPCCKKGDIQCCLRYFEESGDPNVMLICLFCP
B18: D16E variant of SEQ ID NO: 1 (designed binder)
chain: GSPDEYIERAKECCKKGEIQCCLRYFEESGDPNVMLICLFCP
B19: K13G variant of SEQ ID NO: 1 (designed binder)
chain: GSPDEYIERAKECCGKGDIQCCLRYFEESGDPNVMLICLFCP
B20: E10W variant of SEQ ID NO: 1 (designed binder)
chain: GSPDEYIERAKWCCKKGDIQCCLRYFEESGDPNVMLICLFCP
B21: Q18G variant of SEQ ID NO: 1 (designed binder)
chain: GSPDEYIERAKECCKKGDIGCCLRYFEESGDPNVMLICLFCP
B22: Y04P variant of SEQ ID NO: 1 (designed binder)
chain: GSPDEPIERAKECCKKGDIQCCLRYFEESGDPNVMLICLFCP
B23: I17E variant of SEQ ID NO: 1 (designed binder)
chain: GSPDEYIERAKECCKKGDEQCCLRYFEESGDPNVMLICLFCP
B24: R07P variant of SEQ ID NO: 1 (designed binder)
chain: GSPDEYIEPAKECCKKGDIQCCLRYFEESGDPNVMLICLFCP
B25: P01Y variant of SEQ ID NO: 1 (designed binder)
chain: GSYDEYIERAKECCKKGDIQCCLRYFEESGDPNVMLICLFCP
B26: A08P variant of SEQ ID NO: 1 (designed binder)
chain: GSPDEYIERPKECCKKGDIQCCLRYFEESGDPNVMLICLFCP
B27: E03Y variant of SEQ ID NO: 1 (designed binder)
chain: GSPDYYIERAKECCKKGDIQCCLRYFEESGDPNVMLICLFCP
B28: D02Y variant of SEQ ID NO: 1 (designed binder)
chain: GSPYEYIERAKECCKKGDIQCCLRYFEESGDPNVMLICLFCP
B29: E06P variant of SEQ ID NO: 1 (designed binder)
chain: GSPDEYIPRAKECCKKGDIQCCLRYFEESGDPNVMLICLFCP
B30: Q18D variant of SEQ ID NO: 1 (designed binder)
chain: GSPDEYIERAKECCKKGDIDCCLRYFEESGDPNVMLICLFCP
B31: K09P variant of SEQ ID NO: 1 (designed binder)
chain: GSPDEYIERAPECCKKGDIQCCLRYFEESGDPNVMLICLFCP
B32: A08Y variant of SEQ ID NO: 1 (designed binder)
chain: GSPDEYIERYKECCKKGDIQCCLRYFEESGDPNVMLICLFCP
B33: I17G variant of SEQ ID NO: 1 (designed binder)
chain: GSPDEYIERAKECCKKGDGQCCLRYFEESGDPNVMLICLFCP
B34: D16G variant of SEQ ID NO: 1 (designed binder)
chain: GSPDEYIERAKECCKKGGIQCCLRYFEESGDPNVMLICLFCP
B35: K14E variant of SEQ ID NO: 1 (designed binder)
chain: GSPDEYIERAKECCKEGDIQCCLRYFEESGDPNVMLICLFCP
B36: E03P variant of SEQ ID NO: 1 (designed binder)
chain: GSPDPYIERAKECCKKGDIQCCLRYFEESGDPNVMLICLFCP
B37: I17D variant of SEQ ID NO: 1 (designed binder)
chain: GSPDEYIERAKECCKKGDDQCCLRYFEESGDPNVMLICLFCP

This assay has as its target biotinylated His-Avi-TEAD (194-411) (UniProt P28347). Briefly: SSM screen, enrichment after two rounds of sorting.
In the case of B1, the enrichment score was -5.46. Then B2, with 1.27; and B3, with -0.1; and B4, with -1.01. Then B5, with -2.11; and B6, with 1.11; and B7, with -4.41.

As for B8, the enrichment score was -0.26.

For the molecule B9, the enrichment score was -2.33. Then B10, with -10.9; and B11, with -0.84.

B12 showed an enrichment score of 0.43. Under B13 stands -5.61. Under B14 stands 1.99; under B15, -0.43; under B16, -4.96. Consider B17, for which the enrichment score was -3.72.

The molecule B18 registered an enrichment score of -3.6. Then B19, with 0.7; and B20, with -1.58; and B21, with -2.03. B22: the enrichment score was 1.02. Then B23, with -0.3; and B24, with -2.49; and B25, with -3.33.

The molecule B26 gave an enrichment score of -4.7. In turn, B27 showed an enrichment score of -0.36.

B28 had an enrichment score of -1.63.

With B29, the enrichment score is -2.84. Under B30 stands -0.19; under B31, -4.5. Under B32 stands -3.35. Under B33 stands -5.4; under B34, -9.54. For B35, the enrichment score was 1.

B36 showed an enrichment score of -0.4. Under B37 stands -9.42.
